Article PMC12414692

Tests used:
[1] = biological target: hNaV1.5 (human voltage-activated sodium channel alpha subunit NaV1.5, wild type) (human) (UniProt Q14524)
[2] = biological target: hNaV1.5 ΔKPQ (deletion of lysine, proline and glutamine at positions 1505–1507) (human) (UniProt Q14524)

KKLITFILKKTREK [β4 peptide (derived from Homo sapiens sodium channel β4 subunit)] was tested, and the current availability at pulse III (0 mV) after conditioning pulses from −20 to 90 mV and 5 ms at −100 mV, 30 μM β4 peptide in the pipette [1] was 1.5 fold and the normalized INaR peak current, whole-cell voltage clamp of HEK293T cells, 30 μM β4 peptide in the pipette, against wild-type hNaV1.5 with the peptide (fold (against wild type with β4 peptide)) [2] was 2.
